Test results reported in publication PMC9849454, “Kaposi’s sarcoma-associated herpesvirus induces specialised ribosomes to efficiently translate viral lytic mRNAs” (Nature Communications, 2023).

Target: T1, FLAG-2xStrep-PNO1 (UniProt Q9NRX1 1-252)
T1 construct: also called PNO1 bait protein
Assay: pull-down
Conditions: partners not purified

T1 sequence (Q9NRX1 whole entry): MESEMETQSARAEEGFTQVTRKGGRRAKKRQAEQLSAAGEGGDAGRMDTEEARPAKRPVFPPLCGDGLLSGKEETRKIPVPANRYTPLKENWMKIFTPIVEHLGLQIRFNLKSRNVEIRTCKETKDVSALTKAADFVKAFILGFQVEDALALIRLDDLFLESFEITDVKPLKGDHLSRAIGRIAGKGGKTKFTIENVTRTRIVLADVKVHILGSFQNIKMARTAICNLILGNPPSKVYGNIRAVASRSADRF

B1: BUD23 (natural protein, human (endogenous in TREx BCBL1-Rta), UniProt O43709 1-281, looked up)
chain: MASRGRRPEHGGPPELFYDETEARKYVRNSRMIDIQTRMAGRALELLYLPENKPCYLLDIGCGTGLSGSYLSDEGHYWVGLDISPAMLDEAVDREIEGDLLLGDMGQGIPFKPGTFDGCISISAVQWLCNANKKSENPAKRLYCFFASLFSVLVRGSRAVLQLYPENSEQLELITTQATKAGFSGGMVVDYPNSAKAKKFYLCLFSGPSTFIPEGLSENQDEVEPRESVFTNERFPLRMSRRGMVRKSRAWVLEKKERHRRQGREVRPDTQYTGRKRKPRF
- fold increase of association during lytic replication over latency (densitometry of pulldown blots, normalised to PNO1): 4.3 fold

B2: NOC4L (natural protein, human (endogenous in TREx BCBL1-Rta), UniProt Q9BVI4 1-516, looked up)
chain: MEREPGAAGVRRALGRRLEAVLASRSEANAVFDILAVLQSEDQEEIQEAVRTCSRLFGALLERGELFVGQLPSEEMVMTGSQGATRKYKVWMRHRYHSCCNRLGELLGHPSFQVKELALSALLKFVQLEGAHPLEKSKWEGNYLFPRELFKLVVGGLLSPEEDQSLLLSQFREYLDYDDTRYHTMQAAVDAVARVTGQHPEVPPAFWNNAFTLLSAVSLPRREPTVSSFYVKRAELWDTWKVAHLKEHRRVFQAMWLSFLKHKLPLSLYKKVLLIVHDAILPQLAQPTLMIDFLTRACDLGGALSLLALNGLFILIHKHNLEYPDFYRKLYGLLDPSVFHVKYRARFFHLADLFLSSSHLPAYLVAAFAKRLARLALTAPPEALLMVLPFICNLLRRHPACRVLVHRPHGPELDADPYDPGEEDPAQSRALESSLWELQALQRHYHPEVSKAASVINQALSMPEVSIAPLLELTAYEIFERDLKKKGPEPVPLEFIPAQGLLGRPGELCAQHFTLS
- fold increase of association during lytic replication over latency (densitometry of pulldown blots, normalised to PNO1): 3.1 fold
